Biological target: T1, 临床全血样本裂解液中的MxA蛋白 (human) (UniProt P20591)
T1 sequence (looked up): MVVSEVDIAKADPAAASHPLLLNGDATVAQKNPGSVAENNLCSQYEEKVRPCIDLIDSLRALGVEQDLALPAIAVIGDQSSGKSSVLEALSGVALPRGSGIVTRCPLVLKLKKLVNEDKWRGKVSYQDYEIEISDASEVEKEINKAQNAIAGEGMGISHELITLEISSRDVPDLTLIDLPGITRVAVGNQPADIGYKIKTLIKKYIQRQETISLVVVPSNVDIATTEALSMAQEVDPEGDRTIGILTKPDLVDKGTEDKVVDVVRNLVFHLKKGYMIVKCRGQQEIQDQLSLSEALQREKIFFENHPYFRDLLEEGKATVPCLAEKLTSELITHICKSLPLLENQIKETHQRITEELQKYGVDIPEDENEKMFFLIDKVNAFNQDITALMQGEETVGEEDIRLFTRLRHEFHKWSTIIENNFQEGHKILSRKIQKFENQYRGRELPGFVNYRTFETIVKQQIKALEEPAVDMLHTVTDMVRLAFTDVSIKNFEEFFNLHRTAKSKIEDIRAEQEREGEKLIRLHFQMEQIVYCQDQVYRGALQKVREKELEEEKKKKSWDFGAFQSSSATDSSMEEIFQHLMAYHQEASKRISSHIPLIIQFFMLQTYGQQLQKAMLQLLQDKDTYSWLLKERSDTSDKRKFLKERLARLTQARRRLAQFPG
Assay: sandwich ELISA on clinical whole-blood lysates, antibody A coated (capture), antibody B-HRP detection

B1: 抗体A (MxA-A抗体) (antibody, V domains shown)
VH: EVQLVETGGGLVQPKGSLIVSCAASGFTFNRSAMNWVRQAPGKGLEWVARIRTKSNNYATYYADSVKDRFTISRDDSQSMLYLQMNNLKTEDTAMYYCVGGSDFAYWGQGTLVTVSA
VL: DIQMTQTTSSLSASLGDRVTISCRASQDISNYLNWFQQKPDGTVKLLIYYTSRLYSGVPSRFSGSGSGTDYSLTITNLEQEDIATYFCQQGNTLPLTFGAGTKLELK
OD450: > 0.6 OD450

B2: 抗体B (MxA-B抗体) (antibody, V domains shown)
VH: QVQLQQSGAELARPGASVKLSCKASGYTFTSYWILWLKQRPGQGLEWIGAVYPGDGDTRYTQKFKGKATLTADKSSSTAYMQLSSLASEDSAVYYCARGYDNSFDYWGQGTTLTVSS
VL: DVLMTQTPLSLPVSLGDQASISCRTSQTIVHSNGNTYLEWYLQKPGQSPKLLIYKVSNRFSGVPDRFSGSGSGTDFTLKISRVEAEDLGVYYCFQGSHVPPTFGAGTKLELK
OD450: > 0.6 OD450
